The source of these data is patent US20040146507A1.

Test [1] concerns the target rhesus CD18 (rhesus) (UniProt H9Z8N5). Description: saturation binding, rhesus leukocytes, donor 2; Kd(app).
A further test concerns the target human CD18 (human) (UniProt P05107). Put plainly: cell-based or functional assay.
In test [2] the target is rhesus CD18 (rhesus) (UniProt H9Z8N5). Put plainly: cell-based or functional assay.
For test [3] the target is unchanged. Put plainly: saturation binding, rhesus leukocytes, donor 1; Kd(app).

pKd: −log10 of the molar value.

human CD18 (human), sequence (P05107 23-769): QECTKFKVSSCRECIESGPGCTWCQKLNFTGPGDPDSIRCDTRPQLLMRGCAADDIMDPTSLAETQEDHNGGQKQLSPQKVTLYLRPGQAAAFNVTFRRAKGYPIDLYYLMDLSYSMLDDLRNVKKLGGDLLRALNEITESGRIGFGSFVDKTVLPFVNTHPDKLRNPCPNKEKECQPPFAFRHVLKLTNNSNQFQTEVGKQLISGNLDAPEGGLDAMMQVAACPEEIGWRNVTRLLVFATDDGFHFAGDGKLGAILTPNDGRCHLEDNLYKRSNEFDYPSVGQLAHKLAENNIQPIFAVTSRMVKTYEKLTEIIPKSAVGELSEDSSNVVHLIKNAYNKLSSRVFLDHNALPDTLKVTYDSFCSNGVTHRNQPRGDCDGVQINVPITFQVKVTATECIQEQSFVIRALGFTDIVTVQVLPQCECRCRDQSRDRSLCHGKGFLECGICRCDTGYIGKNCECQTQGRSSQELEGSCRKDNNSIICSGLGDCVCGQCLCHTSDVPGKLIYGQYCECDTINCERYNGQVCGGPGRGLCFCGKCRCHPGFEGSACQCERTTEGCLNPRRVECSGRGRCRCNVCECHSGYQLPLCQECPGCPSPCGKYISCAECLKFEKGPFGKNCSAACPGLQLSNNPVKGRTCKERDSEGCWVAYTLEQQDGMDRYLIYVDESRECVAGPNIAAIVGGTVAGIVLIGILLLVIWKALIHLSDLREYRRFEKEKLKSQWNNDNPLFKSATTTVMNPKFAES

Turning to murine anti-human CD18 antibody MHM23, in the test with rhesus CD18 (rhesus) [1], the pKd (commonly −log10 of the Kd, conventionally taken in molar units) is 8.35. The substance also came in with an IC50, blocking of cell adhesion, Rh/HuCD11a: HuK with human CD18 (human) of 1.4 nM. In the test with rhesus CD18 (rhesus) [2], this substance gave an IC50, blocking of cell adhesion, RhLy: HuICAM of 1.2 nM and an IC50, blocking of cell adhesion, RhLy: HuK of 1.6 nM. Moreover, in the test with rhesus CD18 (rhesus) [3], the pKd was 8.41.
